Assay results from US20230218738A1 (Pfizer, published 2023).
Changes are numbered by the printed parent chain.

Legend:
Assay in all cases: BLI (Octet), F on anti-HIS tip, 20 nM mAb
[1] = target: RSV F protein mutant pXCS758 (RSV A2, UniProt P03420 26-109)
[2] = target: RSV F protein mutant pXCS760 (RSV A2, UniProt P03420 26-109)
[3] = target: T1, RSV F protein mutant pXCS785 (RSV A2, UniProt P03420 26-109)
T1 chain 1: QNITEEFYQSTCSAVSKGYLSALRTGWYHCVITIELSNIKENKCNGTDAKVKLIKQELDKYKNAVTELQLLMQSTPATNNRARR
T1 chain 2: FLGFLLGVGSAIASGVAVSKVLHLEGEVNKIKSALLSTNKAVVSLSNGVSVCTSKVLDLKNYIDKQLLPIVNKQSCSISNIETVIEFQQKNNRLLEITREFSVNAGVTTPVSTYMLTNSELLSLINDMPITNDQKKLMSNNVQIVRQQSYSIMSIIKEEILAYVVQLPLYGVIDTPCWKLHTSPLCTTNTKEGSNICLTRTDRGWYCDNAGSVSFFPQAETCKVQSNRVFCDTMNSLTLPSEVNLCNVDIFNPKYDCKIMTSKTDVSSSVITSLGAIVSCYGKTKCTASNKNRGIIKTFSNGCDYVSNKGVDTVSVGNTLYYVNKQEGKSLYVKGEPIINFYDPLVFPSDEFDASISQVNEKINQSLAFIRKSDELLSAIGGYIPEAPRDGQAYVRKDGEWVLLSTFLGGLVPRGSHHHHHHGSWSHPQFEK

[4] = target: RSV F protein mutant pXCS847 (RSV A2, UniProt P03420 26-109)
[5] = target: RSV F protein mutant pXCS848 (RSV A2, UniProt P03420 26-109)
[6] = target: RSV F protein mutant pXCS850 (RSV A2, UniProt P03420 26-109)
[7] = target: T2, RSV F protein mutant pXCS851 (RSV A2, UniProt P03420 26-109)
T2 chain 1: T1 chain 1 with C30S, T78C
T2 chain 2: T1 chain 2 with I12C, C52L, S54I, D350S

[8] = target: T3, RSV F protein mutant pXCS890 (RSV A2, UniProt P03420 26-109)
T3 chain 1: T1 chain 1 with C30S, T78C
T3 chain 2: T1 chain 2 with I12C, C52L, S54I

[9] = target: T4, RSV F protein mutant pXCS738 (RSV A2, UniProt P03420 26-109)
T4 chain 1: T1 chain 1
T4 chain 2: T1 chain 2 with L6C, N235C

B1: MPE8 (antibody, V domains shown)
VH: EVQLVESGGGLVKPGGSLRLSCAASGFTFSSYSMNWVRQAPGKGLEWVSSISASSSYSDYADSAKGRFTISRDNAKTSLFLQMNSLRAEDTAIYFCARARATGYSSITPYFDIWGQGTLVTVSS
VL: QSVVTQTPSVSGAPGQRVTISCTGSSSNIGAGYDVHWYQQLPGTAPKLLIYDNNNRPSGVPDRFSASKSGTSASLAITGLQAEDEADYYCQSYDRNLSGVFGTGTKVTVL
notes: also called MPEG
In the case of B1, the “Response (nm shift)” value [1] is reported as 0.816 nm, the “Response (nm shift)” value [2] is reported as 0.151 nm and the “Response (nm shift)” value [3] is reported as 0.937 nm. The “Response (nm shift)” value [4] was 0.871 nm, the “Response (nm shift)” value [5] was 0.266 nm and the “Response (nm shift)” value [6] was 1.04 nm. The “Response (nm shift)” value [7] was 1.02 nm, the “Response (nm shift)” value [8] was 0.999 nm and the “Response (nm shift)” value [9] was 0.741 nm.

B2: AM22 (antibody, V domains shown)
VH: QVQLVQSGAEVKKPGATVKVSCKISGHTLIKLSIHWVRQAPGKGLEWMGGYEGEVDEIFYAQKFQHRLTVIADTATDTVYMELGRLTSDDTAVYFCGTLGVTVTEAGLGIDDYWGQGTLVTVSS
VL: EIVLTQSPGTLSLSPGERATLSCRASQIVSRNHLAWYQQKPGQAPRLLIFGASSRATGIPVRFSGSGSGTDFTLTINGLAPEDFAVYYCLSSDSSIFTFGPGTKVDFK
With B2 the “Response (nm shift)” value [1] was 0.273 nm, the “Response (nm shift)” value [2] was 0.121 nm and the “Response (nm shift)” value [3] was 0.465 nm. For the same binder, the “Response (nm shift)” value [4] was 0.484 nm, the “Response (nm shift)” value [5] was 0.109 nm and the “Response (nm shift)” value [6] was 0.517 nm. For the same binder, the “Response (nm shift)” value [7] was 0.508 nm, the “Response (nm shift)” value [8] was 0.538 nm and the “Response (nm shift)” value [9] was 0.273 nm.
